Results as given in patent US20240254255A1 (Regeneron, published 2024).

B1: BsAb1-MCC-Maytansinoid A (bispecific antibody, human IgG4 S228P, kappa)
heavy 1: EVQLVESGGGLAQPGGSLRLSCAASGFSISDYEIHWVRQVPGKGLEWVSGIGSAGNTYYPGAVKGRFTISRENAKNSLYLQVNSLTVGDTAVYYCARVWSPLYYFGLDVWGQGTTVTVSSASTKGPSVFPLAPCSRSTSESTAALGCLVKDYFPEPVTVSWNSGALTSGVHTFPAVLQSSGLYSLSSVVTVPSSSLGTKTYTCNVDHKPSNTKVDKRVESKYGPPCPPCPAPEFLGGPSVFLFPPKPKDTLMISRTPEVTCVVVDVSQEDPEVQFNWYVDGVEVHNAKTKPREEQFNSTYRVVSVLTVLHQDWLNGKEYKCKVSNKGLPSSIEKTISKAKGQPREPQVYTLPPSQEEMTKNQVSLTCLVKGFYPSDIAVEWESNGQPENNYKTTPPVLDSDGSFFLYSRLTVDKSRWQEGNVFSCSVMHEALHNRFTQKSLSLSPGK
heavy 2: not shown
light: not shown
modifications: SMCC-DM1 (M1) conjugate, attachment residues not stated
notes: Antibody-drug conjugate of BsAb1; also called BsAb1 conjugated with M1 (SMCC-DM1)
B2: H4H17325D (BsAb1), HER2 x HER2 bispecific antibody (bispecific antibody, human IgG4 S228P, kappa)
heavy 1: B1 heavy 1
heavy 2: not shown
light: not shown
notes: Human IgG4 bispecific with a common light chain; also called bispecific antibody 1
B3: BsAb1-Tubulysin 1A-LP (Anti HER2 BsAb1-PEG3-N3-Tubulysin 1A-LP) (bispecific antibody, human IgG4 S228P, kappa)
heavy 1: B1 heavy 1
heavy 2: not shown
light: not shown
modifications: deglycosylated (PNGase F); Q295 carries azido-PEG3-amine clicked to Tubulysin 1A-LP
notes: Site-specific antibody-drug conjugate of BsAb1; also called HER2xHER2-M830
B4: BsAb1-CAMPT1 (Anti-HER2 BsAb1-substituted alkyl amine-(N3)2-CAMPT-1-LP) (bispecific antibody, human IgG4 S228P, kappa)
heavy 1: B1 heavy 1
heavy 2: not shown
light: not shown
modifications: Q295 carries a bis azido-alkyl substituted amine (bisSP1) clicked to CAMPT-1-LP
notes: Antibody-drug conjugate of BsAb1; also called BsAb1-Camp1
B5: BsAb2-Tubulysin 1A-LP (Anti HER2 BsAb2-PEG3-N3-Tubulysin 1A-LP) (bispecific antibody, human IgG4 S228P, kappa)
heavy 1: QVQLVESGGGVVQPGRSLRLSCEASGFTFSGYALHWVRQAPGKGLEWVTVISYDGSDKFYADSVKGRFTISRDNSKNTLYLQMNSLRTEDTALYYCAKDWGTYHWNYGHYNYVMDVWGQGTTVTVSSASTKGPSVFPLAPCSRSTSESTAALGCLVKDYFPEPVTVSWNSGALTSGVHTFPAVLQSSGLYSLSSVVTVPSSSLGTKTYTCNVDHKPSNTKVDKRVESKYGPPCPPCPAPEFLGGPSVFLFPPKPKDTLMISRTPEVTCVVVDVSQEDPEVQFNWYVDGVEVHNAKTKPREEQFNSTYRVVSVLTVLHQDWLNGKEYKCKVSNKGLPSSIEKTISKAKGQPREPQVYTLPPSQEEMTKNQVSLTCLVKGFYPSDIAVEWESNGQPENNYKTTPPVLDSDGSFFLYSRLTVDKSRWQEGNVFSCSVMHEALHNRFTQKSLSLSPGK
heavy 2: not shown
light: not shown
modifications: deglycosylated (PNGase F); Q295 carries azido-PEG3-amine clicked to Tubulysin 1A-LP
notes: Site-specific antibody-drug conjugate of BsAb2; also called H4H17087D-Tubulysin 1A-LP
B6: BsAb2-CAMPT1 (bispecific antibody, human IgG4 S228P, kappa)
heavy 1: B5 heavy 1
heavy 2: not shown
light: not shown
modifications: Q295 carries a bis azido-alkyl substituted amine (bisSP1) clicked to CAMPT-1-LP
notes: Antibody-drug conjugate of BsAb2; also called BsAb2-Camp1
B7: BsAb2-MCC-Maytansinoid A (bispecific antibody, human IgG4 S228P, kappa)
heavy 1: B5 heavy 1
heavy 2: not shown
light: not shown
modifications: SMCC-DM1 (M1) conjugate, attachment residues not stated
notes: Antibody-drug conjugate of BsAb2; also called BsAb2 conjugated with M1 (SMCC-DM1)

Legend:
[1] = biological target: T1, human HER2 (ErbB2) expressed on the surface of cell lines and primary cells (human, UniProt P04626 23-1255); test: cell-based or functional assay
[2] = biological target: T2, hErbB2-MMH (human HER2 ectodomain with C-terminal myc-myc-hexahistidine tag) (human, UniProt P04626 23-652); test: SPR (MASS-2), ADC captured on anti-human Fc, hErbB2-MMH in solution, 25 C
T2 construct: also called Her2 ECD; Her2 protein
Description: (§1) Equilibrium dissociation constants (KD values) for hErbB2.mmh binding to anti-HER2×HER2 antibodies conjugated with either M830 or M1 were determined using a real-time surface plasmon resonance biosensor assay on a MASS-2 instrument. The MASS-2 sensor surface was derivatized by amine coupling with a monoclonal mouse anti-human Fc antibody (REGN2567) to capture anti-HER2×HER2 ADC and parent unmodified antibodies expressed with human constant regions. […] Human hErbB2 was prepared in-house expressing a C-terminal myc-myc-hexahistidine tag (hErbB2-MMH). […] Association of hErbB2-MMH to each of the captured ADCs and monoclonal antibodies was monitored for 3 minutes. Subsequently, hErbB2-MMH dissociation was monitored for 10 minutes in HBS-EP running buffer. Anti-human Fc surface was regenerated by a brief injection of 20 mM H₃PO₄. All binding kinetic experiments were performed at 25° C.
Kinetic association (kₐ) and dissociation (Kd) rate constants were determined by fitting the real-time sensorgrams to a 1:1 binding model using Scrubber 2.0c curve fitting software. All sensorgrams were double referenced by subtracting buffer injection sensorgram signal from the corresponding analyte sensorgram, thereby removing artifacts caused by dissociation of the antibody from the capture surface. Binding dissociation equilibrium constants (KD) and dissociative half-lives (t½) were calculated from the kinetic rate constants as: […]

[3] = biological target: T2, hErbB2-MMH (human HER2 ectodomain with …); test: SPR (MASS-2), antibody captured on anti-human Fc, hErbB2-MMH in solution, 25 C
Description: as §1
Kinetic association (kₐ) and dissociation (Kd) rate constants were determined by fitting the real-time sensorgrams to a 1:1 binding model using Scrubber 2.0c curve fitting software. […] Binding dissociation equilibrium constants (KD) and dissociative half-lives (t½) were calculated from the kinetic rate constants as: […]

[4] = biological target: T1, human HER2 (ErbB2) expressed on the …; test: cell-based or functional assay; remark: listed apart in the source

Row | Binder | IC50 of cell killing, JIMT1 cells (Cell Titer Glow, 6 days) [1] [nM] | IC50 of cell killing, MDAMB361 cells (Cell Titer Glow, 6 days) [1] [nM] | IC50 of cell killing, MDAMB453 cells (Cell Titer Glow, 6 days) [1] [nM] | IC50 of cell killing, SKBR3 cells (Cell Titer Glow, 6 days) [1] [nM] | IC50 of cell killing, ZR751 cells (Cell Titer Glow, 6 days) [1] [nM] | Antigen Bound (RU) [2] [RU] | Kd [2] [nM] | t1/2 [2] [min] | t1/2 [3] [min] | IC50 of cell killing, MDAMB231 cells (Cell Titer Glow, 6 days) [4] [nM] | IC50 of cell killing, MDAMB468 cells (Cell Titer Glow, 6 days) [4] [nM] | IC50 of cell killing, T47D cells (Cell Titer Glow, 6 days) [4] [nM] | IC50 of cell killing, primary breast (mammary epithelial) cells (Cell Titer Glow, 6 days) [4] [nM] | IC50 of cell killing, primary lung epithelial cells (Cell Titer Glow, 6 days) [4] [nM] | IC50 of cell killing, primary myocardial cells (Cell Titer Glow, 6 days) [4] [nM] | IC50 of cell killing, primary prostate epithelial cells (Cell Titer Glow, 6 days) [4] [nM] | koff [2] [s⁻¹] | kon [2] [M⁻¹ s⁻¹]
1 | B1 | 7 | 0.05 | 0.1 | 0.02 | 6 | 93.6 | 0.512 | 32.7 |  |  |  |  |  |  |  |  |  | 
2 | B2 |  |  |  |  |  |  |  |  | 29 |  |  |  |  |  |  |  |  | 
3 | B3 | 0.07 | 0.003 | 0.02 | 0.004 | 0.06 | 114 |  | 33.5 |  | 40 | 50 | 8 | 25 | > 67 | 9 | 30 |  | 
4 | B4 |  |  |  |  |  | 117 | 0.472 | 41 |  |  |  |  |  |  |  |  |  | 
5 | B5 |  |  |  |  |  | 72.7 | ≤ 0.0431 | ≥ 1160 |  | 50 | 67 | 8 | 20 | > 67 | 30 | > 67 | ≤ 1e-05 | 232000
6 | B6 |  |  |  |  |  | 77 | ≤ 0.0388 | 1160 |  |  |  |  |  |  |  |  | ≤ 1e-05 | 258000
7 | B7 |  |  |  |  |  | 82.8 | 0.0469 | 1130 |  |  |  |  |  |  |  |  | 1.02e-05 | 218000
